The text below walks through data of US20090214524A1.

The assay deals with Bub3 (UniProt O43684). The assay is described as follows: cell-based or functional assay.
Sequence of UniProt O43684 (O43684 whole entry): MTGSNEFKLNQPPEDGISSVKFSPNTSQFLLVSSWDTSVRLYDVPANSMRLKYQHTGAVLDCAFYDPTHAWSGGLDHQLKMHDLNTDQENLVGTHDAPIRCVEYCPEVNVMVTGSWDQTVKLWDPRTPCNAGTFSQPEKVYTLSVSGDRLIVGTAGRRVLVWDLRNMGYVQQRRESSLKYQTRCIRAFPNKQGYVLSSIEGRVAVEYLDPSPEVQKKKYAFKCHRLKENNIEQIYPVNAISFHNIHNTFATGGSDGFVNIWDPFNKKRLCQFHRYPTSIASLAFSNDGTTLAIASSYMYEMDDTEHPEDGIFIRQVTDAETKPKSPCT

In turn, “myc-tagged siRNA-resistant wild type BubR1 (pcDNA3-myc-BubR1^ΔsiRNA) (from UniProt O60566 1-1050)” returned a restoration of colcemid-mediated mitotic checkpoint arrest (BrdU incorporation) in T98G cells depleted of endogenous BubR1 of 50%.
